Data: paper PMC9482650, “Quantitative fragmentomics allow affinity mapping of interactomes” (Nature Communications, 2022)

B1: PKP4, Q99569 (peptide)
chain: QYPGSPDSWV
B2: JAM3, Q9BX67 (peptide)
chain: DFRHKSSFVI
B3: UQCRC2, P22695 (peptide)
chain: LGHTPFVDEL
B4: MAP7D2, Q96T17 (peptide)
chain: GQETPLNTFC

target: T1, DFNB31_3, Q9P202; assay: holdup assay; parameters: key: below the threshold = too weak to quantify, mostly under pKd 3.1 to 4; conditions: plain residues with an end cap or a label only (N-terminal biotin on a linker: ado-ado)
T1 sequence (Q9P202 811-907, limits assumed, looked up): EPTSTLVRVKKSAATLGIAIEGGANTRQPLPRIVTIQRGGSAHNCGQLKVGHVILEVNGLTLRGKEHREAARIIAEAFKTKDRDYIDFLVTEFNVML

Binder	pKd
B1	3.75
B2	3.86
B3	3.82
B4	below the threshold

target: T2, HTRA4, P83105; assay: holdup assay; parameters: key: below the threshold = too weak to quantify, mostly under pKd 3.1 to 4; conditions: plain residues with an end cap or a label only (N-terminal biotin on a linker: ado-ado)
T2 sequence (P83105 378-476, limits assumed, looked up): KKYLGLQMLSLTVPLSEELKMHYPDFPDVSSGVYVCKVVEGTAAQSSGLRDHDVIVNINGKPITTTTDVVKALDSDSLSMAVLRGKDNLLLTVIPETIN

Binder	pKd
B1	3.48
B2	below the threshold
B3	3.98
B4	below the threshold

target: T3, LIN7C, Q9NUP9; assay: holdup assay; parameters: key: below the threshold = too weak to quantify, mostly under pKd 3.1 to 4; conditions: plain residues with an end cap or a label only (N-terminal biotin on a linker: ado-ado)
T3 sequence (Q9NUP9 88-185, limits assumed, looked up): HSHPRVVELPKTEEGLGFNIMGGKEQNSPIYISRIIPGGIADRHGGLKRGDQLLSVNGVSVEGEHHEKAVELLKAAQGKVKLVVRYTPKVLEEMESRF

Binder	pKd
B1	3.94
B2	3.93
B3	below the threshold
B4	below the threshold

target: T4, DLG3_3, Q92796; assay: holdup assay; parameters: key: below the threshold = too weak to quantify, mostly under pKd 3.1 to 4; conditions: plain residues with an end cap or a label only (N-terminal biotin on a linker: ado-ado)
T4 sequence (Q92796 374-475, limits assumed, looked up): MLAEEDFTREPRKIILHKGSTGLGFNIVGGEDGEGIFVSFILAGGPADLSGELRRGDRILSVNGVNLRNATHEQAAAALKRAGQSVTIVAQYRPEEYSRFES

Binder	pKd
B1	below the threshold
B2	below the threshold
B3	below the threshold
B4	below the threshold

target: LAP2, Q96RT1; assay: holdup assay; parameters: key: below the threshold = too weak to quantify, mostly under pKd 3.1 to 4; conditions: plain residues with an end cap or a label only (N-terminal biotin on a linker: ado-ado)
Sequence (Q96RT1 other isoform, or with tags, fused parts or gaps): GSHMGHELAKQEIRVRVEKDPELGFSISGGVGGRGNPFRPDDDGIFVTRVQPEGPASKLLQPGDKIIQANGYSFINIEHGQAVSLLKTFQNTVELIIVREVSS

Binder	pKd
B1	5.5
B2	below the threshold
B3	below the threshold
B4	below the threshold

target: NOS1, P29475; assay: holdup assay; parameters: key: below the threshold = too weak to quantify, mostly under pKd 3.1 to 4; conditions: plain residues with an end cap or a label only (N-terminal biotin on a linker: ado-ado)
Sequence (P29475 9-101): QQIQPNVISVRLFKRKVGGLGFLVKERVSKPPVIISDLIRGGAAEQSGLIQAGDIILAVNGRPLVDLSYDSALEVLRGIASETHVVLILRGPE

Binder	pKd
B1	3.78
B2	below the threshold
B3	below the threshold
B4	below the threshold

target: GRIP2_4, Q9C0E4; assay: holdup assay; parameters: key: below the threshold = too weak to quantify, mostly under pKd 3.1 to 4; conditions: plain residues with an end cap or a label only (N-terminal biotin on a linker: ado-ado)
Sequence (Q9C0E4 446-548): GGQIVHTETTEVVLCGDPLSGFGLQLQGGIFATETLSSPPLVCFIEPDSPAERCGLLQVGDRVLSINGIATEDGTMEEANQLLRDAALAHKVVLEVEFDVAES

Binder	pKd
B1	below the threshold
B2	below the threshold
B3	below the threshold
B4	below the threshold

target: T5, TX1BP3, O14907; assay: holdup assay; parameters: key: below the threshold = too weak to quantify, mostly under pKd 3.1 to 4; conditions: plain residues with an end cap or a label only (N-terminal biotin on a linker: ado-ado)
T5 sequence (O14907 10-122, limits assumed, looked up): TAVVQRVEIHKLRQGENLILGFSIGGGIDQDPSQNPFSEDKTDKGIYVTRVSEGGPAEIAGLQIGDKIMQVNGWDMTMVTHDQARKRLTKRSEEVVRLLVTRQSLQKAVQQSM

Binder	pKd
B1	4.98
B2	below the threshold
B3	below the threshold
B4	4.04

target: MAGI2_5, Q86UL8; assay: holdup assay; parameters: key: below the threshold = too weak to quantify, mostly under pKd 3.1 to 4; conditions: plain residues with an end cap or a label only (N-terminal biotin on a linker: ado-ado)
Sequence (Q86UL8 915-1017): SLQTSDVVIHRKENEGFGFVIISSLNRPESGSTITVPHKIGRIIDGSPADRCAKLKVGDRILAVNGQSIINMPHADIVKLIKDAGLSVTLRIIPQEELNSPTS

Binder	pKd
B1	below the threshold
B2	below the threshold
B3	3.47
B4	below the threshold

target: DLG4_3, P78352; assay: holdup assay; parameters: key: below the threshold = too weak to quantify, mostly under pKd 3.1 to 4; conditions: plain residues with an end cap or a label only (N-terminal biotin on a linker: ado-ado)
Sequence (P78352 306-403): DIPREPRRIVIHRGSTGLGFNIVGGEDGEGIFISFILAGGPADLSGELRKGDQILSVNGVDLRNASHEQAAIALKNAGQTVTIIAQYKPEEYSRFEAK

Binder	pKd
B1	below the threshold
B2	below the threshold
B3	below the threshold
B4	3.6

target: MAGI2_2, Q86UL8; assay: holdup assay; parameters: key: below the threshold = too weak to quantify, mostly under pKd 3.1 to 4; conditions: plain residues with an end cap or a label only (N-terminal biotin on a linker: ado-ado)
Sequence (Q86UL8 410-522): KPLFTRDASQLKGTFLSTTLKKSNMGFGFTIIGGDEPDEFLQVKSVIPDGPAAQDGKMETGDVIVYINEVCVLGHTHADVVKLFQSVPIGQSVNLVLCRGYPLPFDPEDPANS

Binder	pKd
B1	below the threshold
B2	below the threshold
B3	below the threshold
B4	below the threshold

target: IL16_3, Q14005; assay: holdup assay; parameters: key: below the threshold = too weak to quantify, mostly under pKd 3.1 to 4; conditions: plain residues with an end cap or a label only (N-terminal biotin on a linker: ado-ado)
Sequence (Q14005 1107-1207): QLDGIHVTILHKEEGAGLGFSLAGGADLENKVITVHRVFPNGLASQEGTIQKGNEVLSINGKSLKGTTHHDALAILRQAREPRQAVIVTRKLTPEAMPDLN

Binder	pKd
B1	3.55
B2	below the threshold
B3	below the threshold
B4	below the threshold

target: FRMPD2_3, Q68DX3; assay: holdup assay; parameters: key: below the threshold = too weak to quantify, mostly under pKd 3.1 to 4; conditions: plain residues with an end cap or a label only (N-terminal biotin on a linker: ado-ado)
Sequence (Q68DX3 1073-1166): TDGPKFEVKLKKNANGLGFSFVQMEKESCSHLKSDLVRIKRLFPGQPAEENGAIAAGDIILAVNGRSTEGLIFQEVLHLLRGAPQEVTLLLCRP

Binder	pKd
B1	below the threshold
B2	below the threshold
B3	below the threshold
B4	below the threshold

target: MAST1, Q9Y2H9; assay: holdup assay; parameters: key: below the threshold = too weak to quantify, mostly under pKd 3.1 to 4; conditions: plain residues with an end cap or a label only (N-terminal biotin on a linker: ado-ado)
Sequence (Q9Y2H9 962-1065): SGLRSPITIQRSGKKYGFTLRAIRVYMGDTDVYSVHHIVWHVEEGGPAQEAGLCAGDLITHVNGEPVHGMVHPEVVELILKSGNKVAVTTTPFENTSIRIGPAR

Binder	pKd
B1	3.97
B2	below the threshold
B3	4.12
B4	3.79

target: T6, RADIL, Q96JH8; assay: holdup assay; parameters: key: below the threshold = too weak to quantify, mostly under pKd 3.1 to 4; conditions: plain residues with an end cap or a label only (N-terminal biotin on a linker: ado-ado)
T6 sequence (Q96JH8 971-1071, limits assumed, looked up): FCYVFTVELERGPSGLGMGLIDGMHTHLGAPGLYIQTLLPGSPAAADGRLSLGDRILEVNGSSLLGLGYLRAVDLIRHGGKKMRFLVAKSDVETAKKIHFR

Binder	pKd
B1	4.89
B2	3.96
B3	3.66
B4	below the threshold

target: T7, MPP7, Q5T2T1; assay: holdup assay; parameters: key: below the threshold = too weak to quantify, mostly under pKd 3.1 to 4; conditions: plain residues with an end cap or a label only (N-terminal biotin on a linker: ado-ado)
T7 sequence (Q5T2T1 134-230, limits assumed, looked up): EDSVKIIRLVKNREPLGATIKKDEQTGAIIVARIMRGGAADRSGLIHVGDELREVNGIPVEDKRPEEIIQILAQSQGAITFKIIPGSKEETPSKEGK

Binder	pKd
B1	below the threshold
B2	3.79
B3	below the threshold
B4	below the threshold

target: Inadl_4, Q8NI35; assay: holdup assay; parameters: key: below the threshold = too weak to quantify, mostly under pKd 3.1 to 4; conditions: plain residues with an end cap or a label only (N-terminal biotin on a linker: ado-ado)
Sequence (Q8NI35 547-651): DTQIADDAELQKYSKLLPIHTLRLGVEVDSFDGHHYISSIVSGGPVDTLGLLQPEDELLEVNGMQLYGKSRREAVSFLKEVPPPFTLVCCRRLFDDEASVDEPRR

Binder	pKd
B1	below the threshold
B2	below the threshold
B3	below the threshold
B4	below the threshold

target: HTRA2, O43464; assay: holdup assay; parameters: key: below the threshold = too weak to quantify, mostly under pKd 3.1 to 4; conditions: plain residues with an end cap or a label only (N-terminal biotin on a linker: ado-ado)
Sequence (O43464 355-458): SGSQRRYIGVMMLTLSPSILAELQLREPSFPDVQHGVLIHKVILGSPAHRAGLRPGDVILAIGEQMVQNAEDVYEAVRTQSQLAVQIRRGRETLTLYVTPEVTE

Binder	pKd
B1	4.05
B2	below the threshold
B3	below the threshold
B4	below the threshold

target: T8, DFNB31_2, Q9P202; assay: holdup assay; parameters: key: below the threshold = too weak to quantify, mostly under pKd 3.1 to 4; conditions: plain residues with an end cap or a label only (N-terminal biotin on a linker: ado-ado)
T8 sequence (Q9P202 274-371, limits assumed, looked up): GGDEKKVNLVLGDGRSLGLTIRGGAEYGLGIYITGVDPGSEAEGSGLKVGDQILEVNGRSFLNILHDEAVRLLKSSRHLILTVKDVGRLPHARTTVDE

Binder	pKd
B1	3.62
B2	below the threshold
B3	below the threshold
B4	below the threshold

target: PICK1, Q9NRD5; assay: holdup assay; parameters: key: below the threshold = too weak to quantify, mostly under pKd 3.1 to 4; conditions: plain residues with an end cap or a label only (N-terminal biotin on a linker: ado-ado)
Sequence (Q9NRD5 17-115): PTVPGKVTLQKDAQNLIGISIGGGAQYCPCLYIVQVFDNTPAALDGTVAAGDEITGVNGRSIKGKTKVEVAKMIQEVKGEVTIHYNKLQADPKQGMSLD

Binder	pKd
B1	below the threshold
B2	below the threshold
B3	4.09
B4	below the threshold

target: Inadl_5, Q8NI35; assay: holdup assay; parameters: key: below the threshold = too weak to quantify, mostly under pKd 3.1 to 4; conditions: plain residues with an end cap or a label only (N-terminal biotin on a linker: ado-ado)
Sequence (Q8NI35 673-780): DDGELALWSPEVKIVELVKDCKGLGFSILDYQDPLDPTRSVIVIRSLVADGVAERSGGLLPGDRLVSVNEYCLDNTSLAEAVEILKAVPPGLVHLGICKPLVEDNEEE

Binder	pKd
B1	3.87
B2	below the threshold
B3	below the threshold
B4	below the threshold

target: SCRIB_3, Q14160; assay: holdup assay; parameters: key: below the threshold = too weak to quantify, mostly under pKd 3.1 to 4; conditions: plain residues with an end cap or a label only (N-terminal biotin on a linker: ado-ado)
Sequence (Q14160 999-1103): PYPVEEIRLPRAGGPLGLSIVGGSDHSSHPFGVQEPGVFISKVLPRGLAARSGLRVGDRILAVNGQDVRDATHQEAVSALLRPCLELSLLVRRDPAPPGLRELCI

Binder	pKd
B1	4.48
B2	below the threshold
B3	below the threshold
B4	below the threshold

target: T9, PDZD2_2, O15018; assay: holdup assay; parameters: key: below the threshold = too weak to quantify, mostly under pKd 3.1 to 4; conditions: plain residues with an end cap or a label only (N-terminal biotin on a linker: ado-ado)
T9 sequence (O15018 329-429, limits assumed, looked up): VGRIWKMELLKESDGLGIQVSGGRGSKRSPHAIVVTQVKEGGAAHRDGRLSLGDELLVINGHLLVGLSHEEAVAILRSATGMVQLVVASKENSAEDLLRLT

Binder	pKd
B1	6.06
B2	below the threshold
B3	below the threshold
B4	4.03

target: Inadl_6, Q8NI35; assay: holdup assay; parameters: key: below the threshold = too weak to quantify, mostly under pKd 3.1 to 4; conditions: plain residues with an end cap or a label only (N-terminal biotin on a linker: ado-ado)
Sequence (Q8NI35 1058-1167): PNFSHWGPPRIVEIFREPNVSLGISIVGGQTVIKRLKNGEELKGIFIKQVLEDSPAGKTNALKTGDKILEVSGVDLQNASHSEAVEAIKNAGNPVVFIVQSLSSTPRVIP

Binder	pKd
B1	4.21
B2	below the threshold
B3	below the threshold
B4	below the threshold

target: Inadl_1, Q8NI35; assay: holdup assay; parameters: key: below the threshold = too weak to quantify, mostly under pKd 3.1 to 4; conditions: plain residues with an end cap or a label only (N-terminal biotin on a linker: ado-ado)
Sequence (Q8NI35 113-229): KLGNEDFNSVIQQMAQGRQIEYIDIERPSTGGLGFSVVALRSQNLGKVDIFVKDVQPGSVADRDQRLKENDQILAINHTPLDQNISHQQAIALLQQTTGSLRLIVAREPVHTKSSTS

Binder	pKd
B1	below the threshold
B2	below the threshold
B3	below the threshold
B4	below the threshold

target: T10, DLG3_2, Q92796; assay: holdup assay; parameters: key: below the threshold = too weak to quantify, mostly under pKd 3.1 to 4; conditions: plain residues with an end cap or a label only (N-terminal biotin on a linker: ado-ado)
T10 sequence (Q92796 221-321, limits assumed, looked up): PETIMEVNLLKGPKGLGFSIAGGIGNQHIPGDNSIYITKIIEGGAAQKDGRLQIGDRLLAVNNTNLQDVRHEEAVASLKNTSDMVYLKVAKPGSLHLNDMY

Binder	pKd
B1	4.13
B2	4.16
B3	3.48
B4	3.93

target: T11, PTPN13_1, Q12923; assay: holdup assay; parameters: key: below the threshold = too weak to quantify, mostly under pKd 3.1 to 4; conditions: plain residues with an end cap or a label only (N-terminal biotin on a linker: ado-ado)
T11 sequence (Q12923 1088-1188, limits assumed, looked up): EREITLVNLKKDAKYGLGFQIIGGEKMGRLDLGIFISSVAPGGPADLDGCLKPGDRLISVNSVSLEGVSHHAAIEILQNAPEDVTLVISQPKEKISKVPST

Binder	pKd
B1	below the threshold
B2	below the threshold
B3	below the threshold
B4	below the threshold
